Tests used:
FcγRIa [1] = target: T1, FcγRIa (human, UniProt P12314 16-292); experiment: SPR (Biacore), relative binding
T1 construct: extracellular domain; also called FcgRIa; FcgRI; not shown: His tag attached to the C terminus
Source text: The constructed expression vectors were each combined with GpH7-A5 and GpL16-k0 to express heterodimerized antibodies, or they were combined with GpL16-k0 alone but not with other H chains to express homodimerized antibodies. These antibodies were expressed and purified according to the method described in Reference Example 1. The resulting purified antibodies are the following: the heterodimerized antibodies GpH7-A5/GpH7-B12/GpL16-k0, GpH7-A5/GpH7-B13/GpL16-k0, GpH7-A5/GpH7-B14/GpL16-k0, and GpH7-A5/GpH7-B15/GpL16-k0; and homodimerized antibodies GpH7-B12/GpL16-k0, GpH7-B13/GpL16-k0, GpH7-B14/GpL16-k0, and GpH7-B15/GpL16-k0. The prepared antibodies were used to assess the binding activity to each FcγR by the method described in Reference Example 2.
Analysis of interaction between objective antibody and the FcγR was carried out using Biacore T100 (GE Healthcare). HBS-EP+ (GE Healthcare) was used as the running buffer, and the measurement temperature was set to 25° C. Chips produced by immobilizing the antigen peptide by the amine coupling method to a Series S Sencor Chip CM5 (GE Healthcare), or alternatively, chips produced by allowing preliminarily biotinylated antigen peptides to interact with and immobilize onto a Series S Sensor Chip SA (certified) (GE Healthcare) were used. Antibodies of interest were captured onto an antigen peptide-immobilized chip, and allowed to interact to each FcγR diluted with running buffer. To regenerate and repeatedly use the chip, the antibodies captured on the chip were washed off by reacting 10 mM glycine-HCl, pH 1.5.

FcγRIIIa = target: T2, FcγRIIIa (human, UniProt P08637 17-208); experiment: SPR (Biacore), KD
T2 construct: extracellular domain; not shown: His tag attached to the C terminus
T2 sequence (P08637 17-208): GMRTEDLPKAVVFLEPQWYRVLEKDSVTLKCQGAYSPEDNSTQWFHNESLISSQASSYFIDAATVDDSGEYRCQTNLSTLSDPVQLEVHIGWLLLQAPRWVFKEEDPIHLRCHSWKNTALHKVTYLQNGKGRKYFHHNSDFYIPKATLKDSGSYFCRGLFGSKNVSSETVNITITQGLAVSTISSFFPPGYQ

FcγRIIIa V = target: T3, FcγRIIIa V (human, UniProt P08637 17-208); experiment: SPR (Biacore), KD
T3 construct: extracellular domain; also called FcgRIIIa V; FcgRIIIaV; not shown: His tag attached to the C terminus
T3 sequence (P08637 17-208 F176V limits assumed): as the sequence (P08637 17-208) above, with F160V counted along it

FcγRIIIa F = target: T4, FcγRIIIa F (human, UniProt P08637 17-208); experiment: SPR (Biacore), KD
T4 construct: extracellular domain; also called FcgRIIIa F; FcgRIIIaF; not shown: His tag attached to the C terminus
T4 sequence (P08637 17-208): as the sequence (P08637 17-208) above

FcγRIa [2] = target: T1, FcγRIa; experiment: SPR (Biacore4000), kinetic analysis
Description: The variants described above were assessed for their binding to FcγR according to the method described in Reference Example 8.
Analysis of interaction between obj ective antibody and the FcγR was carried out using Biacore T100 (GE Healthcare), Biacore T200, Biacore A100, and Biacore 4000. HBS-EP+ (GE Healthcare) was used as the running buffer, and the measurement temperature was set to 25° C. Chips produced by immobilizing the antigen peptide by the amine coupling method to a Series S sensor Chip CM5 (GE Healthcare), chips produced by allowing preliminarily biotinylated antigen peptides to interact with and immobilize onto a Series S Sensor Chip SA (certified) (GE Healthcare), chips produced by immobilizing Protein L (ACTIGEN, BioVision) to Series S Sencor Chip CM5 (GE Healthcare), or chips produced by immobilizing Protein A/G (Thermo Scientific) to Series S Sencor Chip CM5 (GE Healthcare) were used. Antibodies of interest were captured onto these chips, and allowed to interact to each FcγR diluted with running buffer. To regenerate and repeatedly use the chip, the antibodies captured onto the chip were washed off by reacting 10 mM glycine-HCl, pH 1.5.

T1 sequence (P12314 16-292): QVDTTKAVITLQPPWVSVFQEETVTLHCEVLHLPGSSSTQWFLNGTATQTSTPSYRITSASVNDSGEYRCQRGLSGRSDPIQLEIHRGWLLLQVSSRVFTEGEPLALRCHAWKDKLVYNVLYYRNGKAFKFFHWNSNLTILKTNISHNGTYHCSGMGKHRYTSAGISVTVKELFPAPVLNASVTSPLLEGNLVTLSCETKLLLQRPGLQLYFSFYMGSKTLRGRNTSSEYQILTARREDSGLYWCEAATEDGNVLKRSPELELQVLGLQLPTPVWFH

B1: GpH7-B14/GpL16-k0 (antibody, human IgG1, kappa)
heavy: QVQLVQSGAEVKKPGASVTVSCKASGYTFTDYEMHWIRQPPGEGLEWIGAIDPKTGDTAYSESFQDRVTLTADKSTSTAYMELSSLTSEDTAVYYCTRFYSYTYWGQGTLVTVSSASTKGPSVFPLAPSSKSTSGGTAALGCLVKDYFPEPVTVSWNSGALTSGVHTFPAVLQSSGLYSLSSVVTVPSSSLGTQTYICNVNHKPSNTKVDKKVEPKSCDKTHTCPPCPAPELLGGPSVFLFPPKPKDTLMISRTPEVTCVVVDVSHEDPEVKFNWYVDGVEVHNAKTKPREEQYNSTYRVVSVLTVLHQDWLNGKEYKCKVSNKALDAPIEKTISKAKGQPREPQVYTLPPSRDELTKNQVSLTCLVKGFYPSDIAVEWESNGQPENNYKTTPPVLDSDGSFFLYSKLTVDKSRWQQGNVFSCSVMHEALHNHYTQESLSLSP
light: DIVMTQSPLSLPVTPGEPASISCQASESLVHSNRNTYLHWYLQKPGQSPQLLIYKVSNRFSGVPDRFSGSGSGTDFTLKISRVEAEDVGVYYCSQNTHVPPTFGQGTKVEIERTVAAPSVFIFPPSDEQLKSGTASVVCLLNNFYPREAKVQWKVDNALQSGNSQESVTEQDSKDSTYSLSSTLTLSKADYEKHKVYACEVTHQGLSSPVTKSFNRGEC
notes: P329D in both H chains
- binding activity relative to GpH7-A5/GpH7-B3/GpL16-k0 (FcγRIa [1]): ≤ 0.2 fraction of GpH7-A5/GpH7-B3/GpL16-k0

B2: GpH7-A53/GpH7-B78/GpL16-k0 (antibody, human IgG1, kappa)
heavy 1: QVQLVQSGAEVKKPGASVTVSCKASGYTFTDYEMHWIRQPPGEGLEWIGAIDPKTGDTAYSESFQDRVTLTADKSTSTAYMELSSLTSEDTAVYYCTRFYSYTYWGQGTLVTVSSASTKGPSVFPLAPSSKSTSGGTAALGCLVKDYFPEPVTVSWNSGALTSGVHTFPAVLQSSGLYSLSSVVTVPSSSLGTQTYICNVNHKPSNTKVDKKVEPKSCDKTHTCPPCPAPELLGGPDVFLFPPKPKDTLMISRTPEVTCVVVDVSHEDPEVKFNWYVDGVEVHNAKTKPREEQYNSTYRVVSVLTVLHQDWLNGKEYKCKVSNKALPAPIEKTISKAKGQPREPQVYTLPPSRKELTKNQVSLTCLVKGFYPSDIAVEWESNGQPENNYKTTPPVLDSDGSFFLYSKLTVDKSRWQQGNVFSCSVMHEALHNRYTQKSLSLSP
heavy 2: QVQLVQSGAEVKKPGASVTVSCKASGYTFTDYEMHWIRQPPGEGLEWIGAIDPKTGDTAYSESFQDRVTLTADKSTSTAYMELSSLTSEDTAVYYCTRFYSYTYWGQGTLVTVSSASTKGPSVFPLAPSSKSTSGGTAALGCLVKDYFPEPVTVSWNSGALTSGVHTFPAVLQSSGLYSLSSVVTVPSSSLGTQTYICNVNHKPSNTKVDKKVEPKSCDKTHTCPPCPAPELLGGPDVFLFPPKPKDTLMISRTPEVTCVVVDVSHEDPEVKFNWYVDGVEVHNAKTKPREEQYNSTYRVVSVLTVLHQDWLNGKEYKCKVSNKALPLPEEKTISKAKGQPREPQVYTLPPSRDELTKNQVSLTCLVKGFYPSDIAVEWESNGQPENNYKTTPPVLDSDGSFFLYSKLTVDKSRWQQGNVFSCSVMHEALHNHYTQESLSLSP
light: DIVMTQSPLSLPVTPGEPASISCQASESLVHSNRNTYLHWYLQKPGQSPQLLIYKVSNRFSGVPDRFSGSGSGTDFTLKISRVEAEDVGVYYCSQNTHVPPTFGQGTKVEIERTVAAPSVFIFPPSDEQLKSGTASVVCLLNNFYPREAKVQWKVDNALQSGNSQESVTEQDSKDSTYSLSSTLTLSKADYEKHKVYACEVTHQGLSSPVTKSFNRGEC
notes: S239D in one H chain, S239D/A330L/I332E in the other
- fold decrease of binding activity against GpH7-A57/GpH7-B78/GpL16-k0 (FcγRIIIa): 1.8 fold

B3: GpH7-TA7/GpH7-B78/GpL16-k0 (antibody, human IgG1, kappa)
heavy 1: QVQLVQSGAEVKKPGASVTVSCKASGYTFTDYEMHWIRQPPGEGLEWIGAIDPKTGDTAYSESFQDRVTLTADKSTSTAYMELSSLTSEDTAVYYCTRFYSYTYWGQGTLVTVSSASTKGPSVFPLAPSSKSTSGGTAALGCLVKDYFPEPVTVSWNSGALTSGVHTFPAVLQSSGLYSLSSVVTVPSSSLGTQTYICNVNHKPSNTKVDKKVEPKSCDKTHTCPPCPAPEYLWGPSVFLFPPKPKDTLMISRTPEVTCVVVDVSHEDPEVKFNWYVDGVEVHNAKTKPREEQYNATYRVVSVLTVLHQDWLNGKEYKCKVSNKALPAPIEKTISKAKGQPREPQVYTLPPSRKELTKNQVSLTCLVKGFYPSDIAVEWESNGQPENNYKTTPPVLDSDGSFFLYSKLTVDKSRWQQGNVFSCSVMHEALHNRYTQKSLSLSP
heavy 2: QVQLVQSGAEVKKPGASVTVSCKASGYTFTDYEMHWIRQPPGEGLEWIGAIDPKTGDTAYSESFQDRVTLTADKSTSTAYMELSSLTSEDTAVYYCTRFYSYTYWGQGTLVTVSSASTKGPSVFPLAPSSKSTSGGTAALGCLVKDYFPEPVTVSWNSGALTSGVHTFPAVLQSSGLYSLSSVVTVPSSSLGTQTYICNVNHKPSNTKVDKKVEPKSCDKTHTCPPCPAPELLGGPDVFLFPPKPKDTLMISRTPEVTCVVVDVSHEDPEVKFNWYVDGVEVHNAKTKPREEQYNSTYRVVSVLTVLHQDWLNGKEYKCKVSNKALPLPEEKTISKAKGQPREPQVYTLPPSRDELTKNQVSLTCLVKGFYPSDIAVEWESNGQPENNYKTTPPVLDSDGSFFLYSKLTVDKSRWQQGNVFSCSVMHEALHNHYTQESLSLSP
light: DIVMTQSPLSLPVTPGEPASISCQASESLVHSNRNTYLHWYLQKPGQSPQLLIYKVSNRFSGVPDRFSGSGSGTDFTLKISRVEAEDVGVYYCSQNTHVPPTFGQGTKVEIERTVAAPSVFIFPPSDEQLKSGTASVVCLLNNFYPREAKVQWKVDNALQSGNSQESVTEQDSKDSTYSLSSTLTLSKADYEKHKVYACEVTHQGLSSPVTKSFNRGEC
notes: L234Y/G236W/S298A in one H chain, S239D/A330L/I332E in the other
- fold enhancement of binding against GpH7-A5/GpH7-B78/GpL16-k0 (FcγRIIIa): ≥ 10 fold

B4: GpH7-B15/GpL16-k0 (antibody, human IgG1, kappa)
heavy: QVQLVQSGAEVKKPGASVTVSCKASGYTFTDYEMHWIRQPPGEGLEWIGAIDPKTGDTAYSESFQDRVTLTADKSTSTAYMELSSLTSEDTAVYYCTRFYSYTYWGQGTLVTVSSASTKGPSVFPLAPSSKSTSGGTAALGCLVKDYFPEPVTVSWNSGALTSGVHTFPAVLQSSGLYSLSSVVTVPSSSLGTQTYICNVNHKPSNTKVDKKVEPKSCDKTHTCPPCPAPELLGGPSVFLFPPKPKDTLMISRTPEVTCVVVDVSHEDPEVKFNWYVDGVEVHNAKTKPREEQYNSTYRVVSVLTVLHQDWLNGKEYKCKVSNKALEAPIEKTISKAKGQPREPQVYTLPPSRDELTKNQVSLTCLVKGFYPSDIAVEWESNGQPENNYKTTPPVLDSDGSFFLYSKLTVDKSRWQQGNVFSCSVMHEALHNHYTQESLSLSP
light: DIVMTQSPLSLPVTPGEPASISCQASESLVHSNRNTYLHWYLQKPGQSPQLLIYKVSNRFSGVPDRFSGSGSGTDFTLKISRVEAEDVGVYYCSQNTHVPPTFGQGTKVEIERTVAAPSVFIFPPSDEQLKSGTASVVCLLNNFYPREAKVQWKVDNALQSGNSQESVTEQDSKDSTYSLSSTLTLSKADYEKHKVYACEVTHQGLSSPVTKSFNRGEC
notes: P329E in both H chains
- binding activity relative to GpH7-A5/GpH7-B3/GpL16-k0 (FcγRIa [1]): ≤ 0.2 fraction of GpH7-A5/GpH7-B3/GpL16-k0

B5: H240-Kn193/H240-Hl204/L73-k0 (antibody, human IgG1, kappa)
heavy 1: QDQLVQSGAEVKKPGASVKVSCKASGFNIKDTYIQWVRQAPGQGLEWMGRIDPLRKQTKYREKFEGRVTITADTSTNTAYMELSSLRSEDTAVYYCVRSGREFDYWGQGTLVTVSSASTKGPSVFPLAPSSKSTSGGTAALGCLVKDYFPEPVTVSWNSGALTSGVHTFPAVLQSSGLYSLSSVVTVPSSSLGTQTYICNVNHKPSNTKVDKKVEPKSCDKTHTCPPCPAPEYNWGPMVFLFPPKPKDTLMISRTPEVTCVVVDVSDEDPEVKFNWYVDGVEVHNAKTKPRERQYNATYRVVSVLTVLHQDWLNGKEYKCKVSNKDLPAPIEKTISKAKGQPREPQVCTLPPSRDELTKNQVSLWCLVKGFYPSDIAVEWESNGQPENNYKTTPPVLDSDGSFFLYSKLTVDKSRWQQGNVFSCSVMHEALHNHYTQKSLSLSP
heavy 2: QDQLVQSGAEVKKPGASVKVSCKASGFNIKDTYIQWVRQAPGQGLEWMGRIDPLRKQTKYREKFEGRVTITADTSTNTAYMELSSLRSEDTAVYYCVRSGREFDYWGQGTLVTVSSASTKGPSVFPLAPSSKSTSGGTAALGCLVKDYFPEPVTVSWNSGALTSGVHTFPAVLQSSGLYSLSSVVTVPSSSLGTQTYICNVNHKPSNTKVDKKVEPKSCDKTHTCPPCPAPELLTGPSVFLFPPKPKDTLMISRTPEVTCVVVDVSHEEPEVKFNWYVDGVEVHNAKTKPREEQYNSTYRVVSVLTVLHQDWLNGKEYKCKVSNDALPKPEEETISKAKGQPREPQVYTLPPSRCELTKNQVSLSCAVKGFYPSDIAVEWESNGQPENNYKTTPPVLDSDGSFFLVSKLTVDKSRWQQGNVFSCSVMHEALHNHYTQKSLSLSP
light: DIQMTQSPSSLSASVGDRVTITCRASQDIHKYIAWYQQKPGQAPRLLIQYTSTLQPGVPSRFSGSGSGTDYTFTISSLQPEDIATYYCLQYEQLRTFGGGTKVEIKRTVAAPSVFIFPPSDEQLKSGTASVVCLLNNFYPREAKVQWKVDNALQSGNSQESVTEQDSKDSTYSLSSTLTLSKADYEKHKVYACEVTHQGLSSPVTKSFNRGEC
notes: Y235N/E294R in H240-Kn120; G236T/I332E in H240-Hl068
- fold enhancement of binding against the variant before introduction of I332E and Y235N (FcγRIIIa V): 8 fold
- fold enhancement of binding against the variant before introduction of I332E and Y235N (FcγRIIIa F): 2 fold
- koff (FcγRIa [2]): < 5e-05 s⁻¹
